Results on six molecules are retold here after article PMC3422223 (PLoS ONE, 2012).

Assay [1] addresses T1, CCL3 (Homo sapiens, UniProt P10147, biotin (sulfo-NHS-LC-biotin) in the Biacore and streptavidin-plate ELISA experiments; not biotinylated where coated directly). Nature of the assay: cell-based or functional assay.
Assay [2] addresses T2, CCL4 (Homo sapiens, UniProt P13236, biotin (sulfo-NHS-LC-biotin) in the Biacore and streptavidin-plate ELISA experiments; not biotinylated where coated directly). Nature of the assay: cell-based or functional assay.
Assay [3] addresses T3, CCL5 (Homo sapiens, UniProt P13501, biotin (sulfo-NHS-LC-biotin) in the Biacore and streptavidin-plate ELISA experiments; not biotinylated where coated directly). Nature of the assay: cell-based or functional assay.
For assay [4], the target named is T1, CCL3. Nature of the assay: SPR; Biacore 2000; biotinylated CCL3, CCL4, CCL5 immobilised on a streptavidin chip (~100 RU); Fabs flowed over at 500 pM to 1 µM; regeneration 10 mM glycine pH 1.5; triplicate; 1:1 Langmuir fit, murine and humanized 18V4F Fabs fit to a steady state model. The conditions noted are these: both partners purified. On the technique in general: SPR reads the build-up and loss of mass on a sensor chip optically.

Assay [5] deals with T2, CCL4. The description is as above. The conditions noted are these: both partners purified.
Assay [6] concerns the target T3, CCL5. The assay is described as above. The conditions noted are these: both partners purified.

T3 sequence (P13501 24-91): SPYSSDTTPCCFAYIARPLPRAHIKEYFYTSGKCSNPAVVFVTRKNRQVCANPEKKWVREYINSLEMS
T2 sequence (P13236 24-92): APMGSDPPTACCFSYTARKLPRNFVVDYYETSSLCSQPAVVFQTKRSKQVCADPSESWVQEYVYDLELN
T1 sequence (P10147 24-92): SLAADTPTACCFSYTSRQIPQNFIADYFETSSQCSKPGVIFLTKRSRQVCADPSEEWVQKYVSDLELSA

B1: 18V4F Fab variant d7 (Fab, V domains shown)
VH: EVQLVESGGGLVQPGGSLRLSCAASGFSLYDEGAHWVRQAPGKGLEWVGVIWPGGGTNYNSALMSRFTISKDNSKNTVYLQMNSLRAEDTAVYYCARGPLITTEVSMDYWGQGTLVTVSS
VL: SAEVTQPPSVSVSPGQTARITCSSNTGAVTTSNYANWVQQKPGQAPVGLIGGTNERPSGIPERFSGSSSGNTATLTISGAQAEDEADYYCALWYSNHWVFGGGTKLTVL
One may read the Kd as the constant that tells how readily two partners part at equilibrium. A higher Kd goes with lower affinity. Broadly, the koff is the rate constant with which the complex falls apart. For orientation: kon means a measure of how fast the partners come together. Regarding B1, the “IC50 of inhibition of chemotaxis of CCR5-transfected Ba/F3 cells to 5 ng/mL CCL3 (blocks CCL3 with CCR5)” value (shortened to “IC50 of inhibition … (blocks CCL3 with CCR5)”) in the assay with CCL3 [1] amounted to 18 nM. In addition, the “IC50 of inhibition of chemotaxis of CCR5-transfected Ba/F3 cells to 5 ng/mL CCL4 (blocks CCL4 with CCR5)” value (“IC50 of inhibition … (blocks CCL4 with CCR5)” below) with CCL4 [2] was found to be 0.6 nM. In addition, the “IC50 of inhibition of chemotaxis of CCR5-transfected Ba/F3 cells to 5 ng/mL CCL5 (blocks CCL5 with CCR5)” value (from here on “IC50 of inhibition … (blocks CCL5 with CCR5)”) in the assay with CCL5 [3] worked out at 4.1 nM. In the assay with CCL3 [4], this molecule returned a Kd of 35 nM, a koff of 0.0033 s⁻¹ and a kon of 110000 M⁻¹ s⁻¹. In the assay with CCL4 [5], this molecule showed a Kd of 7.3 nM, a koff of 0.0004 s⁻¹ and an on-rate constant (kon) of 60000 M⁻¹ s⁻¹.

B2: d5d7 Fab (Fab, V domains shown)
VH: EVQLVESGGGLVQPGGSLRLSCAASGFSLYDEGAHWVRQAPGKGLEWVGVIWPGGGTNYNSALMSRFTISKDNSKNTVYLQMNSLRAEDTAVYYCARGPLITTEVSMDYWGQGTLVTVSS
VL: SAEVTQPPSVSVSPGQTARITCSSNTPLRPYRNYANWVQQKPGQAPVGLIGGTNERPSGIPERFSGSSSGNTATLTISGAQAEDEADYYCALWYSNHWVFGGGTKLTVL
notes: also called 18V4F Fab variant d5d7; not shown: His6, C-terminal, kept
Regarding B2, in the assay with CCL3 [1], the “IC50 of inhibition … (blocks CCL3 with CCR5)” value came to 1 nM. In addition, in the assay with CCL4 [2], the “IC50 of inhibition … (blocks CCL4 with CCR5)” value came to 0.2 nM. Also, the “IC50 of inhibition … (blocks CCL5 with CCR5)” value with CCL5 [3] was determined as 0.9 nM. In the assay with CCL3 [4], this molecule had a Kd of 8.5 nM, a koff of 0.0054 s⁻¹ and a kon of 80000 M⁻¹ s⁻¹. In the assay with CCL4 [5], this molecule gave a Kd of 1.8 nM, a koff of 0.0036 s⁻¹ and a kon of 380000 M⁻¹ s⁻¹.

B3: humanized 18V4F Fab (Fab, V domains shown)
VH: EVQLVESGGGLVQPGGSLRLSCAASGFSLTGYAMHWVRQAPGKGLEWVGVIWPGGGTNYNSALMSRFTISKDNSKNTVYLQMNSLRAEDTAVYYCARGPLITTEVSMDYWGQGTLVTVSS
VL: SAEVTQPPSVSVSPGQTARITCSSNTGAVTTSNYANWVQQKPGQAPVGLIGGTNERPSGIPERFSGSSSGNTATLTISGAQAEDEADYYCALWYSNHWVFGGGTKLTVL
notes: also called Hu-18V4F
Regarding B3, the “IC50 of inhibition … (blocks CCL3 with CCR5)” value with CCL3 [1] was more than 1000 nM. Moreover, the “IC50 of inhibition … (blocks CCL4 with CCR5)” value in the assay with CCL4 [2] was more than 1000 nM. Further, in the assay with CCL5 [3], the “IC50 of inhibition … (blocks CCL5 with CCR5)” value was more than 1000 nM. Moreover, the Kd was 272 nM with CCL3 [4], 251 nM with CCL4 [5] and 187 nM with CCL5 [6].

B4: 18V4F Fab variant d5 (Fab, V domains shown)
VH: EVQLVESGGGLVQPGGSLRLSCAASGFSLTGYAMHWVRQAPGKGLEWVGVIWPGGGTNYNSALMSRFTISKDNSKNTVYLQMNSLRAEDTAVYYCARGPLITTEVSMDYWGQGTLVTVSS
VL: SAEVTQPPSVSVSPGQTARITCSSNTPLRPYRNYANWVQQKPGQAPVGLIGGTNERPSGIPERFSGSSSGNTATLTISGAQAEDEADYYCALWYSNHWVFGGGTKLTVL
Regarding B4, the “IC50 of inhibition … (blocks CCL3 with CCR5)” value with CCL3 [1] was found to be 187 nM. For the same molecule, in the assay with CCL4 [2], the “IC50 of inhibition … (blocks CCL4 with CCR5)” value came out at 49 nM. Also, the “IC50 of inhibition … (blocks CCL5 with CCR5)” value with CCL5 [3] stood at 105 nM. Also, in the assay with CCL3 [4], the Kd amounted to 30.4 nM, the koff was 0.0031 s⁻¹ and the on-rate constant (kon) was found to be 100000 M⁻¹ s⁻¹. In the assay with CCL4 [5], this molecule showed a Kd of 15.9 nM, a koff of 0.0012 s⁻¹ and an on-rate (kon) of 70000 M⁻¹ s⁻¹. In the assay with CCL5 [6], this molecule registered a Kd of 5.5 nM, an off-rate (koff) of 0.0014 s⁻¹ and a kon of 340000 M⁻¹ s⁻¹.

B5: 18V4F hybridoma antibody (murine IgG2a/lambda) (antibody, V domains shown)
VH: QVQLKESGPGLVAPSQSLSITCTVSGFSLTGYGIHWVRQPPGKGLEWLGVIWPGGGTNYNSALMSRLSISKDNSKSQVFLKMNSLQTDDTAMYYCARGPLITTEVSMDYWGQGTSVTVSS
VL: QAVVTQESALTTSPGETVTLTCRSNTGAVTTSNYANWVQEKPDHLFTGLIGGTNNRAPGVPARFSGSLIGDKAALTITGAQTEDEAIYFCALWYSNHWVFGGGTKLTVL
Turning to B5, the “IC50 of inhibition … (blocks CCL3 with CCR5)” value in the assay with CCL3 [1] was determined as 196 nM. Besides, the “IC50 of inhibition … (blocks CCL4 with CCR5)” value in the assay with CCL4 [2] is 185 nM. In the assay with CCL5 [3], the “IC50 of inhibition … (blocks CCL5 with CCR5)” value is more than 1000 nM.

B6: murine 18V4F Fab (Fab, V domains shown)
VH: QVQLKESGPGLVAPSQSLSITCTVSGFSLTGYGIHWVRQPPGKGLEWLGVIWPGGGTNYNSALMSRLSISKDNSKSQVFLKMNSLQTDDTAMYYCARGPLITTEVSMDYWGQGTSVTVSS
VL: QAVVTQESALTTSPGETVTLTCRSNTGAVTTSNYANWVQEKPDHLFTGLIGGTNNRAPGVPARFSGSLIGDKAALTITGAQTEDEAIYFCALWYSNHWVFGGGTKLTVL
notes: also called Mu-18V4F
Regarding B6, the Kd with CCL3 [4] was 209 nM; in the assay with CCL4 [5], 103 nM; with CCL5 [6], 50.3 nM.
